Data reported in the supplement of paper PMC9170038.

What was measured:
MS2 coat protein = assay: apparent KD of MS2 coat protein; higher = weaker reporter binding; conditions: Eterna round: R107
Method: (§1)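 RNA-MaP round R107: designed RNA switches with theophylline, tryptophan, arginine or FMN aptamers are transcribed on-chip within common flanks. They are titrated with SNAP-549-labelled MS2 coat protein in RNA-MaP buffer (100 mM Tris pH 7.5, 80 mM KCl, 4 mM MgCl2), without ligand or with the indicated ligand. Median apparent KD per design.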

[1] = tested on: K4 kissing-loop RNA reporter; assay: apparent KD of K4 kissing-loop reporter; higher = weaker reporter binding; conditions: Eterna round: R107;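 also: bound reporter read as fluorescence of individual clusters on recovered sequencing chips by microscopy, with normalized cluster intensities fitted with a binding model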
Method: as §1, with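 “a labelled K4 kissing-loop RNA reporter” for “SNAP-549-labelled MS2 coat protein”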

[2] = input ligand: theophylline 20 uM
[3] = input ligand: tryptophan 2.4 mM
[4] = input ligand: theophylline 2 mM

Sequence | apparent KD of MS2 coat protein (MS2 coat protein; input ligand: arginine 13.2 mM) [nM] | apparent KD of MS2 coat protein (MS2 coat protein; [2]) [nM] | apparent KD of MS2 coat protein (MS2 coat protein; [3]) [nM] | apparent KD of MS2 coat protein (MS2 coat protein; input ligand: none) [nM] | apparent KD of MS2 coat protein (MS2 coat protein; [4]) [nM] | apparent KD of K4 kissing-loop reporter ([1]; input ligand: FMN 200 uM) [nM] | apparent KD of K4 kissing-loop reporter ([1]; input ligand: arginine 13.2 mM) [nM] | apparent KD of K4 kissing-loop reporter ([1]; input ligand: none) [nM] | apparent KD of K4 kissing-loop reporter [1, 2] [nM] | apparent KD of K4 kissing-loop reporter [1, 3] [nM]
AUAAGGUAUCUGCUAUCCUCAUGAGCAGAUACCAGCUAGGAAACUAGCCCUUGGCAGCUGCAACAUGAGGAUCACCCAUGUAAUA [(T)'-(M)'-(T1)-(T2)-(M1)-(M2)_Design1] | 64.4 | 118 | 256 | – | – | – | – | – | – | –
GCACGAGUAAGACCUGACUUCAACAAUGAUACCAGACUAGUAAACGUCCCUUGGCAGCAUCAGACAUGAGGAUCACCCAUGUGGC [theeternabot_exclusion_MS2_Theo_A_44] | 26.4 | 39.1 | 34.3 | – | – | – | – | – | – | –
ACAUGAGGAUCACCCAUGUAAUAGCGAGAAGGAGCGCGUAAGGACGCAGGUAGGUCGCUCGUGGUCCGGCCGCAAGGCCGGACCA [#1 Same State - Arginine A Attempt #10 (HarryS)] | 11.1 | 18.6 | 13.2 | 9.24 | 12 | – | – | – | – | –
CUGCCAUGCAGAGAUACCAGUGAGCUCAGAACAUGAGGAUCACCCAUGUACGCCGCCGAUCACCCUUGGCAGCUCUGCAUGGCAG [%*#)(] | 12.2 | 14.1 | 11.6 | 12.4 | 11.4 | – | – | – | – | –
AACAUGAGGAUCACCCAUGUCUGAACUGAAGGAGCGCUAAAUAAGGCAGGUAGGUCGCGGAAUUUUGUGUACAUAUGUAUAUGGG [9.H] | 21.7 | 32.2 | 23.8 | 25.9 | 35.8 | – | – | – | – | –
UCGCUCGCCGGAAGGCGAGCGAGUUGCGAUACCAGCCCGGAAACGGGCCCUUGGCAGCGCACAUGAGGAUCACCCAUGUCAUGUU [#1 Exclusion - Theophylline A Attempt #6 (HarryS)] | 24.3 | 27.5 | 18.3 | – | – | – | – | – | – | –
UCAUUGAGAGUCAUCCAGCGUUAAUGGGAUACCAGAGUUCUUUUACUCCCUUGGCAGCCCGGAACAUGAGGAUCACCCAUGUCUG [theeternabot_exclusion_MS2_Theo_A_39] | 16.7 | 44.7 | 31.8 | – | – | – | – | – | – | –
GAGUCCACGGCGGCCGCCACUCGCGGCGCCACAUGGCGCCGGGACAUGAGGAUCACCCAUGUCCCGAGGACCGGGCCGAUCCUUA [Same State Typrtophan B GF3] | 11.2 | 26.6 | 12.9 | 21 | 31.5 | – | – | – | – | –
AAUCAUGGAAACAUGACAUGAGGAUUACUCCGAGGACCGGUACGGCCGCCACUCGCGAGGAGGCGGACAUGAGGAUCACCCAUGU [#03 Tryptophan A Same State] | 55.8 | 208 | – | – | 189 | – | – | – | – | –
AUAACAUGAGGAUCACCCAUGUAGAGUGAUACCAGACUAUGUAAUGUCCCUUGGCAGCACAAGUAAAGUUAUAAAUAAUGAUAGA [JR_SSTheophyA_Sub001] | 89.3 | 126 | 136 | – | – | – | – | – | – | –
UAUACUAUGAAAGUAGUAUAUACGUGUUGACGAGGACCGGUACGGCCGCCACUCGACAUGAGGAUCACCCAUGUAUAGAAUAAGU [TrypA_F1] | 18.6 | 24.4 | 15.3 | 23.7 | 30 | – | – | – | – | –
AGGAAACAACAUGAGGAUCACCCAUGUGAUACCAGUCAAAUAAAAGACCCUUGGCAGCACACAUGACAUGAGGAUCACCCAUGUA [AstrosSSTheA#1] | 24.8 | 41.5 | 59.8 | – | – | – | – | – | – | –
AGCUCAGAGUGACUCGAUAAGAGUCACAAACGAGGACCGGUACGGCCGCCACUCGAAAUAAAGAGAGUGAUGUUCUCGCUGAGCA [FiskerMod 9 - Jieux - Same State Tryptophan A] | – | – | – | – | – | 200 | 211 | 223 | 239 | 795
UGUAAUGGCUGAGCAGCCGUGGUACGAGAUACCAGUGAUUUCGAUCACCCUUGGCAGCUCGGCGUGAGUGAUGUUCACGCUACAC [Theo A SS t12] | – | – | – | – | – | 201 | 199 | 203 | 207 | 199
CGCCGCAACUGAAGGAGCGCGCCAGUGAUGUUGGACGGCUUUGUCAAGGAAACUGCACCGGUGCAGGUAGGUCGCAGUUCGCGGU [Dilea] | – | – | – | – | – | 278 | 291 | 297 | 253 | 252
UUUUUGGUUUAGAGUGAUGUUCCUUGUAUUCGAGGACCGGUACGGCCGCCACUCGAAUAGAAAAGAAAAGAAAAGAGUGAUGUUU [BDazzled - #3 SS Tryptophan A] | – | – | – | – | – | 308 | 229 | 292 | 356 | 252
AGACUACCACACUGUCAAUAGACAGUGAGCUAGGAUAUGCUGAUAAGCAGAAGGAGUGAUGUUCCUAGGUAGUCAAUAAAAUAAU [FmnAX 13 G29] | – | – | – | – | – | 447 | 462 | 435 | 645 | 493
CGCGAGUCCUUUCAGUGAGUGAUGUUUACGCGAGGACCGGUACGGCCGCCACUCGAUGGUAUACCAAGACAUCAGCAGAUUGUCU [theeternabot_exclusion_KL_Trp_A_18] | – | – | – | – | – | 304 | 304 | 321 | 387 | 342
AUACAGCGACGCGCUAGUGAUGUUAGCGAAGGAGCGACUCAUGAGUCAGGUAGGUCGCGCUAACGUGGUUACGAGAGUAACCAGU [Arg A Ex t1a] | – | – | – | – | – | 93.3 | 86.8 | 93.6 | 80.1 | 89.4

Sequence | apparent KD of MS2 coat protein (MS2 coat protein; input ligand: arginine 13.2 mM) [nM] | apparent KD of MS2 coat protein (MS2 coat protein; [2]) [nM] | apparent KD of MS2 coat protein (MS2 coat protein; [3]) [nM] | apparent KD of MS2 coat protein (MS2 coat protein; input ligand: none) [nM] | apparent KD of MS2 coat protein (MS2 coat protein; [4]) [nM] | apparent KD of K4 kissing-loop reporter ([1]; input ligand: FMN 200 uM) [nM] | apparent KD of K4 kissing-loop reporter ([1]; input ligand: arginine 13.2 mM) [nM] | apparent KD of K4 kissing-loop reporter ([1]; input ligand: none) [nM] | apparent KD of K4 kissing-loop reporter [1, 2] [nM] | apparent KD of K4 kissing-loop reporter [1, 3] [nM]
AUGCGACGUGCGGCCGCCACUCGGAUGCGAGUGAUGUUCGCGGGACGGACGCAAGUCCGUCAUUCGAGGACCGGGCAUCGGUGUA [#2 Same State - Tryptophan B Attempt #2 (HarryS)] | – | – | – | – | – | 555 | 462 | 636 | 512 | 139
UUGGCAGUGAUGUUGCCAGACAUCACCGAAGGAGCGGGCGAAAGCCCAGGUAGGUCGCGGUAGCGGAGUGAUUCUCCGCGAGGGC [Same State Arginine A GF 23] | – | – | – | – | – | 957 | 621 | 937 | 759 | 829
UUUCGUUUCGUCUGACAUAAUUGGCUAGAAGGAGCGGUAAAAUUACCAGGUAGGUCGCUAGCCCAGUGAUGUUGGGACUAGCGUA [Edries] | – | – | – | – | – | 124 | 107 | 114 | 116 | 125
AGUAGUUGGACGGCCGCCACUGGAACAGCUUUGCCAAAGGCAGAGCACUAGAGUGAUGUUCUAGCUAGGACCGGGUCCAACUACA [whbob_SS_Tryp_B_t16] | – | – | – | – | – | 338 | 89.7 | 440 | 249 | 882
UGGGAUGUUAAAGGAUAUAGCAGAUGAUACAAGAAAGUGAGUGAUGUUUAUGUAGAUGAUGAUAUGUUAGAAGGUUAACAAAACG [abcdefghijk] | – | – | – | – | – | 625 | 595 | 754 | 715 | 544
UGGACCUGACUCGAUAAGAGUCAAUGAGAUACCAGUGACGAAAGUCACCCUUGGCAGCUCCUGCCAGUGAUGUUGGUAAGGUCCU [#SwitchBubble 4 #StaticStem] | – | – | – | – | – | 416 | 252 | 437 | 575 | 299
UUUUGCUAGCGAAACGCUAGCUUAACAGAUACCAGUCGCGAAAGCGACCCUUGGCAGCUGCUGAGUGAUGUUCAGGUGAGAGUUA | – | – | – | – | – | 387 | 221 | 344 | 301 | 312
CCAUUCAUUUACGAUACCAGUCUAAUAUAUUUAAUCAAAACCCUCGCCGAGUGAUGUUCGGACCCUUGGCAGCGUCUGCGACAGG [cyycmullin] | – | – | – | – | – | 354 | 333 | 334 | 399 | 227
CCAAGCGUCAGCGAUACCAGAAUUCUAGUGAUGUUAGGUUCUGUCAUUGUACUAGCAGUGUUCCCUUGGCAGCGCGUGAUAGGCA [theeternabot_exclusion_KL_Theo_B_16] | – | – | – | – | – | 170 | 121 | 140 | 173 | 138
UGUGUUUACCUGACUCAGUGAUGUUGAGAAGGAGCGUUCGAAAGAACAGGUAGGUCGCUCAACCUAAAUUCAGGUGAGCACUAAA | – | – | – | – | – | 264 | 223 | 376 | 466 | 322
UAUUGAUUGUCAGGAUAUCGUAAACGAGUGAUGUUCGUAAAUCGACGAUAGUCGAUAUGAUCUGAACGAGAAGGGACAUUAUUUA [JR_SSFMNB_Sub010] | – | – | – | – | – | 365 | 311 | 388 | 336 | 305
CGCAUACCUGCGCUAGUAGUGAUGUUACAGCGAGGACCGGUACGGCCGCCACUCGUGACGGUCGCAAAACGCGUUGCAGAACACU [theeternabot_exclusion_KL_Trp_A_32] | – | – | – | – | – | 342 | 183 | 247 | 253 | 322
UGUGUUUACCUGACUCAGUGAUGUUGAGAAGGAGCGUGAGAAGGCACAGGUAGGUCGCUCAACCUAAAUUCAGGUGAGCACUAAA | – | – | – | – | – | 134 | 188 | 173 | 193 | 142
GCUAUGGUAGGAAGGAGCGCUACCUUGUUUUUACGAGUGAUGUUCGGAAGCAGGGUGUUAAAGCAGGUAGGUCGCCUACUAUAGC [Arginine B K4 21] | – | – | – | – | – | 192 | 178 | 167 | 205 | 176
CGAGUCGGUUCAGAUACCAGCCAAUUAGAGUCGAGUGAUGUUCGACAAUGAACGUCCAAAGGCCCUUGGCAGCUGGAUUGGGAAC [Same State Theophylline B GF 20] | – | – | – | – | – | 157 | 61.1 | 104 | 112 | 171
ACAGUCGGCUGUGAUACCAGUCGUAUUACAACAUGUUGCAGUGAUGUUGCGAGAUAGGAUGACCCUUGGCAGCACUCAGUACGAC [Same State Theophylline B GF10] | – | – | – | – | – | 208 | 135 | 222 | 252 | 209
AGCUUGGGUUCGGCCGCCACUCCACCCUUAGAAGUGAUGUUUCUCAUGCAUACGCGUCGUCAGAUGAGGACCGGGAAUGUAGUUG [theeternabot_exclusion_KL_Trp_B_24] | – | – | – | – | – | 209 | 444 | 354 | 351 | 214
GCUAUGGUAGGAAGGAGCGCUUAUUUAUUUUUAAGAGUGAUGUUCGAUAGUAGAUAUUUAAAGCAGGUAGGUCGCCUACUAUAGC [Arginine B K4 13] | – | – | – | – | – | 122 | 159 | 108 | 136 | 71.5
GGGCCUGGGCCCGUAAGGGCCUGGGCCCGUUAGGAUAUGACGUGAUUCAGAAGGGAUGGGUGGAGUGAUGUUCCACCCGAGAGGG [#2 Same State - FMN A Attempt #24 (HarryS)] | – | – | – | – | – | 111 | 97.7 | 117 | 88.5 | 96.7
